# Data reported in patent publication US20080279856A1, “Inhibition of Bradykinin Release” (Novo Nordisk Pharmaceuticals, Inc., priority 1999, published 2008).
# Positions count from the first letter of the chain named. Names and notes keep the numbering of the source. “Also recorded” adds a separate entry of the source.
# B1: porcine HBP: Porcine heparin-binding protein, very homologous to human HBP, unable to bind aprotinin (protein)
# chain: IVGGRRAQPQEFPFLASIQKQGRPFCAGALVHPRFVLTAASCFRGKNSGSASVVLGAYDLRQQEQSRQTFSIRSISQNGYDPRQNLNDVLLLQLDREARLTPSVALVPLPPQNATVEAGTNCQVAGWGTQRLRRLFSRFPRVLNVTVTSNPCLPRDMCIGVFSRRGRISQGDRGTPLVCNGLAQGVASFLRRRFRRSSGFFTRVALFRNWIDSVLNNPP
# B2: HBP mutant (G175N): HBP mutant unable to bind aprotinin, three dimensional structure unaltered (protein)
# chain: IVGGRKARPRQFPFLASIQNQGRHFCGGALIHARFVMTAASCFQSQNPGVSTVVLGAYDLRRRERQSRQTFSISSMSENGYDPQQNLNDLMLLQLDREANLTSSVTILPLPLQNATVEAGTRCQVAGWGSQRSGGRLSRFPRFVNVTVTPEDQCRPNNVCTGVLTRRGGICNGDNGTPLVCEGLAHGVASFSLGPCGRGPDFFTRVALFRDWIDGVLNNPGP
# B3: [G175Q]HBP: Mutant of human HBP with G175Q in the BPTI binding site (protein)
# chain: B2 chain with N175Q
# B4: [R23S,F25E]HBP: Mutant of human HBP with R23S and F25E in the putative lipid A/LPS binding site (protein)
# chain: B2 chain with R23S, F25E, N175G
# Columns and labels:
# [1] = tested on: bradykinin-induced increase in EC permeability; test: Inhibition of bradykinin-induced increase in EC permeability; assay type: cell-based, human, bovine; conditions: peptide 3 μg/ml for 30 min; bradykinin 100 nM at 15 min after HBP
# Procedure: (§1) For measurement of electrical resistance across the EC monolayer, the filter insert is transferred to a resistance measurement chamber (ENDOHM-12; World Precision Instruments, Sarasota, Fla., USA) modified so as to assure exact positioning of the electrodes in relation to each other and to the filter insert during repeated measurements. The chamber (lower compartment) and the filter insert (upper compartment) are filled with 2 ml and 400 μl culture medium, respectively. All measurements are made at 37° C. with the equipment placed in a cell culture incubator. Direct readings of the electrical resistance are given by an ohmmeter (EVOM; World Precision Instruments, Sarasota, Fla., USA) connected to the electrodes of the resistance chamber. The electrical resistance of individual EC monolayers is obtained by subtracting the resistance of the corresponding naked filter coated with Biomatrix as measured prior to seeding of the endothelial cells.
# Before transferring the filter inserts to the resistance measurement chamber (kept at 37° C.), the medium in the insert and in the chamber is replaced with fresh culture medium (37° C.) supplemented with 10 mM Hepes. HBP (25-100 μg/ml) or PMN secretion product is added either to the upper or the lower compartment and change in transendothelial electrical resistance is measured every minute until a plateau phase is reached, and thereafter at 5-min intervals. In separate experiments, PMNs (2×10^6) preincubated with mAb IB4 (10 μg/ml) are added to the upper compartment (PMN:EC ratio=10:1) and allowed to sediment for 10 min. Activation of the PMNs is induced through antibody crosslinking of leukocytic CD18 by addition of goat anti-mouse IgG F(ab′)2 diluted 1:20. In experiments where albumin permeability across the EC monolayer is studied, the medium in the insert contained EBA. During the experiment, the filter insert is moved at 5-10 min intervals to new wells containing fresh medium. All incubations are made at 37° C. After the experiment, the medium in the lower wells is aspirated and analyzed for EBA content.
# [2] = tested on: HBP-induced increase in EC permeability; test: Inhibition of HBP-induced increase in EC permeability; assay type: cell-based, human, bovine; conditions: peptide 3 μg/ml for 30 min, wash; HBP 75 μg/ml; N=6
# Excerpt: Alternatively, HBP antagonists may be detected by culturing endothelial cells in the presence of HBP and in the presence and absence of a substance suspected of being an antagonist. In a specific embodiment, the antagonist is a monoclonal antibody that binds to at least one epitope of HBP, preferably human HBP, wherein said epitope binds to prekallikrein-H-kininogen complex and activates release of bradykinin. In a preferred embodiment, the monoclonal antibody is a human monoclonal antibody. In one embodiment, the antibody and HBP are preincubated together before incubating with endothelial cells for about 10 minutes at 37° C. The effect of the substance on the permeability of endothelial cells is determined by measuring transendothelial electrical resistance or determining albumin clearance as described in the Examples, infra. A decrease in permeability would indicate that the substance does act as an HBP antagonist.
# as §1, with “All measurements are made at 37° C. with the equipment placed in a cell culture incubator.” left out
# Evans blue dye-conjugated albumin (EBA) is used as a marker for macromolecular permeability of the EC monolayers. […] In experiments where albumin permeability is analyzed, the culture medium in the upper compartment is exchanged for medium containing EBA. […]
# endothelial cells = test: EC response to CD18 cross-linking in PMNs (Ca2+ and TEER); assay type: cell-based, human, bovine; conditions: EC pre-treated
# Procedure: Human umbilical vein endothelial cells (HUVEC) and bovine aorta endothelial cells (BAEC) are isolated and cultured as previously described (Gautam et al. 1998, Brit. J. Pharm. 125:1109-1114). HUVEC or BAEC in the first to fifth passages are detached by brief (2 min) trypsin-EDTA treatment (0.25% trypsin/0.01% EDTA) and replated onto either 0.2 μm pore size Anopore inorganic membrane or 3.0 μm pore size polycarbonate filters (Tissue Culture inserts, 10 mm; NUNC, Roskilde, Denmark). In order to promote cellular differentiation and enhance attachment of endothelial cells (ECs), the filters are pretreated with 50 μl Biomatrix 1 (167 μg/ml) and air-dried. […] The EC are grown to confluent monolayers, as assessed by daily microscopic observation and measurement of the electrical resistance across the monolayer (Gautam et al 1998, Brit. J. Pharm. 125:1109-1114).
# Two different approaches are used for assessment of stimulation-induced changes in EC permeability. […] Electrical resistance across the EC monolayer is measured at 37° C. with electrodes in each compartment exactly positioned in relation to each other and to the monolayer. The electrical resistance of individual EC monolayers is obtained by subtracting the resistance of the corresponding naked filter coated with Biomatrix as measured prior to seeding of the endothelial cells. […]
# aprotinin = aprotinin (Bos taurus, UniProt P00974); test: Ability of HBP variants to bind aprotinin; assay type: binding
# EC permeability = test: Leakage model: bradykinin release and EC permeability induced by HBP variants; assay type: cell-based
# human monocytes = test: LPS induced IL-6 release from monocytes; assay type: cell-based; conditions: 24 hours, serum-free medium
# Excerpt: Human monocytes are isolated and treated as described (Rasmussen, P. B., Bjørn, S., Hastrup, S., Nielsen, P. F., Norris, K., Thim, L., Wiberg, F. C., and Flodgaard, H. (1996) FEBS Lett. 390: 109-112), with the exception that 1% non-essential amino acids is excluded from the medium.
# 125I-BPTI = 125I-BPTI binding to HBP, scintillation proximity assay; set-up: species or system bovine
# Procedure: (§2) The relative affinities of HBP and the mutants are determined by performing competition studies with […] of unlabeled BPTI.
# [3] = 3H-LPS binding to HBP, scintillation proximity assay
# Procedure: The affinity for lipopolysaccharide (3H-LPS) is measured by scintillation proximity assay technology (SPA) as described (Linde, V., Bjørn, S., Kastrup, J. S., and Flodgaard, H., 2000, Biotechniques 28:218-222). All samples are repeated in triplicates.
# [4] = 125I-BPTI binding to HBP, scintillation proximity assay; set-up: species or system bovine; conditions: competition with unlabeled BPTI; read-out: apparent IC50 of 125I-BPTI binding
# Procedure: as §2
molecule,measurement,setting,value
HKHGHGHHKKNKGKKNGKH (listed as Homo sapiens) [HKH20],effect on bradykinin-induced permeability change,[1],but not the permeability change induced by subsequent administration of bradykinin
same,effect on HBP-induced increase in EC permeability,[2],prevented
SDDDWIPDIQTDPNGLSFNPISDFPDTTSPK (listed as Homo sapiens) [SDD31],effect on bradykinin-induced permeability change,[1],persisted
same,effect on HBP-induced increase in EC permeability,[2],largely prevented
CC(=O)OCOC(=O)CN(CC(=O)OCOC(C)=O)c1ccccc1OCCOc1ccccc1N(CC(=O)OCOC(C)=O)CC(=O)OCOC(C)=O [BAPTA AM],effect on change in TEER,endothelial cells,completely inhibited
same,effect on rise in EC free intracellular Ca2+,endothelial cells,completely inhibited
B1,ability to bind aprotinin,aprotinin,unable to bind aprotinin
B2,induction of bradykinin release and EC permeability,EC permeability,induces bradykinin release and increase in EC permeability
same,ability to bind aprotinin,aprotinin,unable to bind aprotinin
B3,stimulation of LPS induced cytokine-release (IL-6),human monocytes,only a very limited stimulation
same,binding of BPTI,125I-BPTI,eliminated; also recorded: no binding
same,lipid A/LPS binding property,[3],comparable to that of native HBP
B4,stimulation of LPS induced cytokine-release (IL-6),human monocytes,do not affect
same,binding capacity for 125I-BPTI,125I-BPTI,larger binding capacity as compared to HBP
same,binding of BPTI,125I-BPTI,do not affect; also recorded: binds BPTI
same,IC50,[4],~7 nM
same,lipid A/LPS binding property,[3],do not affect
